According to the supplement of paper PMC9170038:

Tested on: MS2 coat protein
Test: apparent KD of MS2 coat protein; designed switch direction (-1 OFF switch, 1 ON switch): 1; higher = weaker reporter binding
In short: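 Designed RNA switches sharing common flanks were transcribed on Illumina chips by stalled E. coli RNA polymerase. They were titrated with SNAP-549-labelled MS2 coat protein, from 0.7 or 1.5 nM doubling to 3 µM, in Tris-HCl pH 7.5 buffer with KCl, MgCl2, BSA, DTT, tRNA and Tween-20. Titrations ran without input, with 200 uM small-molecule ligand, or with an oligonucleotide input. The apparent KD of each design is the median over its clusters, after curve-fitting of normalised cluster fluorescence.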

[1] = input ligand: microRNA oligo, concentration not stated
[2] = Eterna round: R95, input ligand: FMN 200 uM
[3] = Eterna round: R95, input ligand: microRNA oligo, concentration not stated
[4] = Eterna round: R95, input ligand: none

Sequence | apparent KD of MS2 coat protein (input ligand: FMN 200 uM) | apparent KD of MS2 coat protein [1] | apparent KD of MS2 coat protein (input ligand: none) | apparent KD of MS2 coat protein [2] | apparent KD of MS2 coat protein [3] | apparent KD of MS2 coat protein [4]
AUAUGAGGAGCAGGAUAUGCGAAGAAGAAAGAAGCAGAAGGGCUCAUGGGACGACAUGAGGAUCACCCAUGUACUUCGCGAUGA [AK SSNG1-V2-6] (Eterna round: R96, puzzle: Same State NG 1) | 133 nM | 278 nM | 538 nM | – | – | –
AUCCGGAGAAAACAAAUCCGACAUGAGGAUCACCCAUGUACACAGGAUAUCAGCCCGUUGAGGGCUGAGAAGGGUGGCCGAGUG [Cexeati] (Eterna round: R96, puzzle: Same State NG 3) | 267 nM | 72.7 nM | 130 nM | – | – | –
AUCCUACAUGAGGAUCACCCAUGUGACGCCUCAAUAGGAUAUCGGGCCCAAAAUCGGGCACGAGAAGGAUUGAAGC [Aveso] (puzzle: Same State 1) | – | – | – | 85.2 nM | 172 nM | 163 nM
AUGAAGAAUUAAGGAUAUUGAUUACAUAUGUUUAACAUGAGGAUCACCCAUGUGGGUUGCGGUAUCGAGAAGGUAAAAUAAUAG [Mat - same State NG 2 - JL mod - D85] (Eterna round: R96, puzzle: Same State NG 2) | 187 nM | 123 nM | 158 nM | – | – | –
AUGAUCUACCGAAAGGUAGAUCGGCUUGUACAUGAGGAUCACCCAUGUAUGUACAAGCUUUUUGCUCGUCUUAUAAA [Modxample - Jieux - Sensor for bsa-mir-208a] (Eterna round: R96, puzzle: Sensor for hsa-mir-208a) | 279 nM | 16.6 nM | 282 nM | – | – | –
AUGCCAAAAUGAGGAUAUGGAGCCUUAUUGGCUCCAGAAGGCGUGACAUGAGGAUCACCCAUGUGGCAGUGGUCUAAUGACCAC [Eli NG1ss - 44] (Eterna round: R96, puzzle: Same State NG 1) | 21.9 nM | 53.3 nM | 77 nM | – | – | –
AUGCCAAAUGGAGGAUAUGGAGCCUUAUUGGCUCCAGAAGGUCGGACAUGAGGAUCACCCAUGUGGCAGUGGUCUAAUGACCAC [Eli NG1ss - 42] (Eterna round: R96, puzzle: Same State NG 1) | 242 nM | 293 nM | 463 nM | – | – | –
AUGGUCAAGUGUGAGGAUAUCCAUGCUCCCACAUGAGGAUCACCCAUGUCUUAAAGGGCGUAAAGGGAGAAGGUACGAACGCCAC [Edatxein] (Eterna round: R96, puzzle: Same State 2) | 73.1 nM | 49.2 nM | 80.6 nM | – | – | –
AUUAAACAUGAGGAUCACCCAUGUCAACAAAGUCGAGGAUAUGGGCAAAUAAUAUAAUAACCAGAAGGCGAAUAAU [salish99_ss1_r3_081] (puzzle: Same State 1) | – | – | – | 36.7 nM | 28.1 nM | 97 nM
AUUAAACAUGAGGAUCACCCAUGUCAACAAAGUCGAGGAUAUGGGCAUAUUAUCUUAUUACCAGAAGGCGAAUAAU [salish99_ss1_r3_087] (puzzle: Same State 1) | – | – | – | – | 326 nM | –
AUUAACAUGAGGAUCACCCAUGUUACGAGCUUAGCUCGGACACAGGAUAUCCGGUCCUAGAGACCGGAGAAGGGUGCCUUAUAA [Zara MOD4] (Eterna round: R96, puzzle: Same State NG 3) | 742 nM | 123 nM | 265 nM | – | – | –
AUUAACUUGAGAGGAUAUGUAGAGGAUCACCCUACAGAAGGCUCGUUAGAGAGGAUAUGUAGAGGAUCACCCUACAGAAGGCUC [pwkr ssNG DX.9] (Eterna round: R96, puzzle: Same State NG 1) | 95.1 nM | 82.4 nM | 88.7 nM | – | – | –
AUUAAUAAUCGAGGAUAUCACGUCGUUUAGACGUGAGAAGGCGAUCAUAACAUGAGGAUCACCCAUGUAUUACAUGAAGUUAAU [SSNG1/4-B3] (Eterna round: R96, puzzle: Same State NG 1) | 37.8 nM | 26.3 nM | 39.3 nM | – | – | –
AUUAGACAUGAGGAUCACCCAUGUAGGCAGUCAUGAGGAUAUGGACAAGGUGCUCAAGGUCCAGAAGGCAUACGCC [Maxeus] (Eterna round: R96, puzzle: Same State 1) | 12.2 nM | 28.3 nM | 28 nM | – | – | –
AUUAUAUAUGCAGGAUAUGAUUAACAUGAGGAUCACCCAUGUGGUGUUGUGAGUAAGGAGAGUGAUCAGAAGGGCAUUUUUUUU [JMF's solution 63] (Eterna round: R96, puzzle: Same State NG 2) | 852 nM | 163 nM | 353 nM | – | – | –
AUUAUUAAUGCAGGAUAUGAUUAACAUGAGGAUCACCCAUGUGGUGUUGUGAGUAAGGAGAGUGAUCAGAAGGGCAAUUUUUUU [JMF's solution 7] (Eterna round: R96, puzzle: Same State NG 2) | 382 nM | 633 nM | 340 nM | – | – | –

Sequence | apparent KD of MS2 coat protein (input ligand: FMN 200 uM) | apparent KD of MS2 coat protein [1] | apparent KD of MS2 coat protein (input ligand: none) | apparent KD of MS2 coat protein [2] | apparent KD of MS2 coat protein [3] | apparent KD of MS2 coat protein [4]
AUUAUUUAUGCAGGAUAUGAUUAACAUGAGGAUCACCCAUGUGGUGUUGUGAGUAAGGAGAGUGAUCAGAAGGGCAAUUUUUUU [JMF's solution 42] (Eterna round: R96, puzzle: Same State NG 2) | 709 nM | 387 nM | 375 nM | – | – | –
AUUAUUUAUGCAGGAUAUGAUUAACAUGAGGAUCACCCAUGUGGUGUUGUGAGUAAGGAGAGUGAUCAGAAGGGCAUUUAUUUU [JMF's solution 47] (Eterna round: R96, puzzle: Same State NG 2) | 926 nM | 559 nM | 669 nM | – | – | –
AUUGCUAGCACAGGAUAUCAUGCGAAAAUUGCGUGAGAAGGGUGGACGCUGUCAUUCACGGAAGACAUGAGGAUCACCCAUGUC [SameState NG1 #77] (Eterna round: R96, puzzle: Same State NG 1) | 44.6 nM | 56.2 nM | 88.1 nM | – | – | –
AUUGCUAUCACAGGAUAUCAUGCGAAAAUUGCGUGAGAAGGGUGGACUCUGUCAUUGCCGGAGGACAUGAGGAUCACCCAUGUC [SameState NG1 #100] (Eterna round: R96, puzzle: Same State NG 1) | 96.2 nM | 27 nM | 60.9 nM | – | – | –
AUUGCUUACGCAGGAUAUGAUGCGAAAAUUGCGUCAGAAGGGUGAAAAGAAUCGUUGCAAGAAGACAUGAGGAUCACCCAUGUC [SameState NG1 #94] (Eterna round: R96, puzzle: Same State NG 1) | 29.9 nM | 28.2 nM | 59.8 nM | – | – | –
AUUGCUUACGCAGGAUAUGAUGCGGAAACUGCGUCAGAAGGGUGAAAAGAAUCGUUGCAAGAAGACAUGAGGAUCACCCAUGUC [SameState NG1 #95] (Eterna round: R96, puzzle: Same State NG 1) | 20 nM | 23 nM | 30.5 nM | – | – | –
AUUUAACAAGCUUUUUGCUCGUCUUAUAAACAUGAGGAUCACCCAUGUAAUAGCGUGAGAGUAAAUAAAUAAAUAAU [JMF 82] (puzzle: Sensor for hsa-mir-208a) | – | – | – | 17.1 nM | 42.7 nM | 14.2 nM
AUUUAACAAGCUUUUUGCUCGUCUUAUAAACAUGAGGAUCACCCAUGUAAUAGCGUGAGAGUAAAUAAAUUAAUAAU [JMF 97] (puzzle: Sensor for hsa-mir-208a) | – | – | – | 14.4 nM | 46.1 nM | 12.2 nM
AUUUAACAAGCUUUUUGCUCGUCUUAUAAACAUGAGGAUCACCCAUGUAAUAGCGUGAGAGUAAAUAAUUAAAUAAU [JMF 89] (puzzle: Sensor for hsa-mir-208a) | – | – | – | 13.3 nM | 50.7 nM | 9.91 nM
AUUUAACAAGCUUUUUGCUCGUCUUAUAAACAUGAGGAUCACCCAUGUAAUAGCGUGAGAGUAAAUAUAUAAAUAAU [JMF 85] (puzzle: Sensor for hsa-mir-208a) | – | – | – | 13.8 nM | 42.2 nM | 11.9 nM
AUUUAACAAGCUUUUUGCUCGUCUUAUAAACAUGAGGAUCACCCAUGUAAUAGCGUGAGAGUAAAUUUUUAAAUAAU [JMF 95] (puzzle: Sensor for hsa-mir-208a) | – | – | – | 14.5 nM | 38.9 nM | 14.8 nM
AUUUAACAAGCUUUUUGCUCGUCUUAUAAACAUGAGGAUCACCCAUGUAAUAGCGUGAGAGUAAUUAAUUUAAUUAU [JMF 100] (puzzle: Sensor for hsa-mir-208a) | – | – | – | 15.5 nM | 32.7 nM | 14.1 nM
AUUUAAUUUACUCAGGAUAUGCAUAGAUAAACAUGAGGAUCACCCAUGUAAUUAUUUUUUAAUAAGUAGAAGGGAGAUUUUUAUU [splinter_arm[switch]] (puzzle: Same State 2) | – | – | – | 54.9 nM | 65.4 nM | 147 nM
AUUUUUAAUGCAGGAUAUGAUCAACAUGAGGAUCACCCAUGUGGUGUUGUGAGUAAGGAGAGUGAUCAGAAGGGCAUCUUUUCA [SS-NG2-LRO03] (Eterna round: R96, puzzle: Same State NG 2) | 1310 nM | 372 nM | 758 nM | – | – | –
AUUUUUAGUGCAGGAUAUGAUUAACAUGAGGAUCACCCAUGUGGUGUUGUGAGUAAGGAGAGUGAUCAGAAGGGCAUUUUUUUU [JMF's solution 92] (Eterna round: R96, puzzle: Same State NG 2) | 1020 nM | 452 nM | 456 nM | – | – | –
